The values that follow come from the DeepSol protein solubility set.

The nature of the series: soluble on expression in E. coli; label from the status in PepcDB or PDB records.
In the case of “GSRPATPPVTPPSREGHVADLDRFPQDLRVYAMKAGADRQLLPFTEQAAQDARWNRRFFAPWRMTRISVPVKDVAAPFGTDGRPRGYAENLLPWDVTRWGALASGAALDLYPSQAWKGIVVSNSALREVPTLRPMFTAPTRAGQGYPFDMFQRTAVWMGTPVFVGHATADRAWLYVETAFAAGWMPAADVARVDDAFMTRYESGSLAAILRDDTSLNGADGTHLATAHIGTVLPLSGASQVGRTVLVPVRAPEGHAVVVPVLLTSGEAAQKPVPLTPGNMAELGNRMMGQPYGWGGLYEDRDCSSTLRDLFTPFGLWLPRNSASQAKAGRYVDIAKLDADDKEARIVAEGVPFMTLLWLRGHITLYLGLHEGQAAMFHNMWGIRTHRGGVEGRYVLGRAVVTSTRPGLDVPGNDNADGLLGRMQGMSILPGGAQ”, the “soluble on expression in E. coli” value is recorded as “soluble”.

Take “GSSAKRKQEEKHLKMLRDMTGLPHNRKCFDCDQRGPTYVNMTVGSFVCTSCSGSLRGLNPPHRVKSISMTTFTQQEIEFLQKHGNEVCKQIWLGLFDDRSSAIPDFRDPQKVKEFLQEKYEKKRWYVPPEQAKVVASVHA”: the “soluble on expression in E. coli” value is listed as “soluble”.

For “GSSHHHHHHGSMLNMWKVRELVDKATNVVMNYSEIESKVREATNDDPWGPSGQLMGEIAKATFMYEQFPELMNMLWSRMLKDNKKNWRRVYKSLLLLAYLIRNGSERVVTSAREHIYDLRSLENYHFVDEHGKDQGINIRQKVKELVEFAQDDDRLREERKKAKKNKDKYVGVSSD”, the “soluble on expression in E. coli” value was “soluble”.

Take “GSSHHHHHHSSGRENLYFQGHMPKRRKSVTGEIVLITGAGHGIGRLTAYEFAKLKSKLVLWDINKHGLEETAAKCKGLGAKVHTFVVDCSNREDIYSSAKKVKAEIGDVSILVNNAGVVYTSDLFATQDPQIEKTFEVNVLAHFWTTKAFLPAMTKNNHGHIVTVASAAGHVSVPFLLAYCSSKFAAVGFHKTLTDELAALQITGVKTTCLCPNFVNTGFIKNPSTSLGPTLEPEEVVNRLMHGILTEQKMIFIPSSIAFLTTLERILPEGS”: the “soluble on expression in E. coli” value is on record as “soluble”.

With “GSVPATLPQLTPTLVSLLEVIEPEVLYAGYDSSVPDSTWRIMTTLNMLGGRQVIAAVKWAKAIPGFRNLHLDDQMTLLQYSWMYLMAFALGWRSYRQSSANLLCFAPDLIINEQRMTLPGMYDQCKHMLYVSSELHRLQVSYEEYLCMKTLLLLSSVPKDGLKSQELFDEIRMTYIKELGKAIVKREGNSSQNWQRFYQLTKLLDSMHEVVENLLNYCFQTFLDKTMSIEFPEMLAEIITNQIPKYSNGNIKKLLFHQK”, the “soluble on expression in E. coli” value was “soluble”.

As for “GSVPVILEVAGIGKYAISIGGERQEGLTEEMVTQLSRQEFDKDNNTLFLVGGAKEVPYEEVIKALNLLHLAGIK”, the “soluble on expression in E. coli” value is “soluble”.

As for “GTDQYTLLANRVQNAVEARQSATEAERRRHRLEQILKTVPSCVVQLDRDGQFVFANQRAIDVLGLSQSELKDRLYNDPEWEIRDLDGHPIPDAELPFRQVLETGQPLSDARHTIHWPDGTEKVLSVNGAPLFDDD”, the “soluble on expression in E. coli” value is listed as “not soluble”.

On to “GTGAESTAERSARFERDALEFLDQMYSAALRMTRNPADAEDLVQETYAKAYASFHQFREGTNLKAWLYRILTNTFINSYRKKQREPQ”, for which the “soluble on expression in E. coli” value is “soluble”.

On to “GTTKISVPVPPPDANFPPSAAPVFYNPEMELNRDINVAATAAFVERLLSKKDILREEIRYVDAFSASGIRGLRIAGEVGIHSTMNDWSHEAFELIKENIKINGLEEKAQATRRNANVLLHEQRFHIVDVDPFGTPSPYLDAAASSAYSMLSVTATDTAPLCGAHLNSGIRKYASVPLNTEYHSEMGLRVLLGACARELAKHEKGMLPLLSHVTRHYVRTYLEVLPGSRKADKTLKSMGFVAHCPRCGFRKPVYGLAVHIEKECPECGGLTKIAGPLWLGPYREPEFCNEVISELEAHPLNTKEKVRKIITFCRDELDIPMFYDQHVICKELGASATGIESLIEALRAGGFEASRTHFTGTSFKTDAPIAEIKKIILALSG”, for which the “soluble on expression in E. coli” value was “not soluble”.

In the case of “GVNPRGLGPLQIWQTDFTLEPRMAPRSWLAVTVDTASSAIVVTQHGRVTSVAVQHHWATAIAVLGRPKAIKTDNGSCFTSKSTREWLARWGIAHTTGIPGNSQGQAMVERANRLLKDRIRVLAEGDGFMKRIPTSKQGELLAKAMYALNHKERGENTKTPIQKHWRPTVLTEGPPVKIRIETGEWEKGWNVLVWGRGYAAVKNRDTDKVIWVPSRKVKPDITQKDEVTKKDEASPLFA”, the “soluble on expression in E. coli” value is on record as “soluble”.

Regarding “GVSIRSMKNFYDWIKEFVRDQGEFIAQQSGWLELERSSYAKLIAQTISHVLNGGSLLVSADSSRHWFLNYILSNLNPKDLKERPLLSVIDFNASSFYPKNDANLSLATIEMTYQNPMFWHVGKIENEGLKTILLSKIPSFLWLFEELKEDCLLLKEHDSLLDYKLLQLFKLFENALFSVLYNKVTL”, the “soluble on expression in E. coli” value was “soluble”.

Consider “HGIQLLGYARKILRFNDEACSSLMFSNLQGVLTIGASDESADTILPFLLNRVSSVYPKLALDVRVKRNAYMAEMLESQEVDLMVTTHRPSAFKALNLRTSPTHWYCAAEYILQKGEPIPLVLLDDPSPFRDMVLATLNKADIPWRLAYVASTLPAVRAAVKAGLGVTARPVEMMSPDLRVLSGVDGLPPLPDTEYLLCYDPSSNNELAQVIYQAMESYHNPWQYSPMSAPEGDDSLLIERDIE”, for which the “soluble on expression in E. coli” value is listed as “soluble”.

On to “HHHGIRMTRISREMMKELLSVYFIMGSNNTKADPVTVVQKALKGGATLYQFREKGGDALTGEARIKFAEKAQAACREAGVPFIVNDDVELALNLKADGIHIGQEDANAKEVRAAIGDMILGVAAHTMSEVKQAEEDGADYVGLGPIYPTETKKDTRAVQGVSLIEAVRRQGISIPIVGIGGITIDNAAPVIQAGADGVSMISAISQAEDPESAARKFREEIQTYKTGR”, for which the “soluble on expression in E. coli” value is reported as “soluble”.

For the sequence “HHHHHHAIAENLYFQSGRYRIRVATGAWLFSGSYNRVQLWLVGTRGEAELELQLRPARGEEEEFDHDVAEDLGLLQFVRLRKHHWLVDDAWFCDRITVQGPGACAEVAFPCYRWVQGEDILSLPEGTARLPGDNALDMFQKHREKELKDRQQIYCWATWKEGLPLTIAADRKDDLPPNMRFHEEKRLDFEWTLKAGALEMALKRVYTLLSSWNCLEDFDQIFWGQKSALAEKVRQCWQDDELFSYQFLNGANPMLLRRSTSLPSRLVLPSGMEELQAQLEKELQNGSLFEADFILLDGIPANVIRGEKQYLAAPLVMLKMEPNGKLQPMVIQIQPPSPSSPTPTLFLPSDPPLAWLLAKSWVRNSDFQLHEIQYHLLNTHLVAEVIAVATMRCLPGLHPIFKFLIPHIRYTMEINTRARTQLISDGGIFDKAVSTGGGGHVQLLRRAAAQLTYCSLCPPDDLADRGLLGLPGALYAHDALRLWEIIARYVEGIVHLFYQRDDIVKGDPELQAWCREITEVGLCQAQDRGFPVSFQSQSQLCHFLTMCVFTCTAQHAAINQGQLDWYAWVPNAPCTMRMPPPTTKEDVTMATVMGSLPDVRQACLQMAISWHLSRRQPDMVPLGHHKEKYFSGPKPKAVLNQFRTDLEKLEKEITARNEQLDWPYEYLKPSCIENSVTI”, the “soluble on expression in E. coli” value is listed as “soluble”.

Consider “HHHHHHGSGAVKLSVSYRNGTLFIMVMHIKDLVTEDGADPNPYVKTYLLPDTHKTSKRKTKISRKTRNPTFNEMLVYSGYSKETLRQRELQLSVLSAESLRENFFLGGITLPLKDFNLSKETVKWYQLTAATYL”, for which the “soluble on expression in E. coli” value is “soluble”.

As for “HHHHHHYMEQEEDWDRDLLLDPAWEKQQRKTFTAWCNSHLRKAGTQIENIEEDFRNGLKLMLLLEVISGERLPRPDKGKMRFHKIANVNKALDFIASKGVKLVSIGAEEIVDGNLKMTLGMIWTIILRFAIQDISVEETSAKEGLLLWCQRKTAPYRNVNVQNFHTSWKDGLALCALIHRHRPDLIDYAKLRKDDPIGNLNTAFEVAEKYLDIPKMLDAEDIVNTPKPDEKAIMTYVSCFYHAFAGAEQAETAA”, the “soluble on expression in E. coli” value is “soluble”.

Regarding “HMAQVFEECVSFINGLPRTINLPNELKLDLYKYYKQSTIGNCNIKEPSAHKYIDRKKYEAWKSVENLNREDAQKRYVDIVSEIFPYWQD”, the “soluble on expression in E. coli” value is on record as “soluble”.

Turning to “HMSVILDTKGEPVSNAADAYYLVPVSHGEGGLALAKVGNEAEPKAVVLDPHHRPGLTVRFETPLAIAIITESFFLNIKFVPSSSDSEVWDVSKQYPIGLAVKVTDTKSFVGPFRVEKEGEGYKIVYYPDRGQTGLDIGLVHRNDKYYLAATEGEPFVFKIRKATYE”, the “soluble on expression in E. coli” value was “soluble”.

With “HNGWTWEASLNLSANRNKLTELASGSKDDKANNWFVGHPIDCIYDYEKVGLWNSDDPDFQYLDILEPGGNEGMIKVKYTGDRDASGKPTRAIGPEDRQIISLEPKFQGGFSTRVAYKGFDLNVITAFRCGGKLISTLHHSNGYLNMLTGRRGQVDVDYWTPENKGAKYPKPGGIQSGDNPKYGSTLGYFDSSYWKVRNITLGYNFEKQAWLTRMGIQSLRAYLSVQNPFIICSPFHKETGLDPETNSYGNENVAVTEGIQKRFLTVGTNSPSTRNYLFGINLTF”, the “soluble on expression in E. coli” value is “not soluble”.

Regarding “HPPMPDYTRSLESTLSFWASWVEELPHQRLYDAEVRRSMLVLRALTDLQTGGIVAAPTTSLPEDFGGIRNWDYRYVWLRDSALTIEALVEYGFSQAALQWRTWLLRAIAGDPENLRIMYGLGGERHLPERELQHLRGYENSVPVRVGNGAAEQYQADVVGEVMVALETIRRAGCLEDEFSWGMQKAILDFQEANFDRKDQGIWEMRSEPQYFTHGRAMMWAGFDRGIKAIEEFNLDGPIERWRELRAKLREEIMTNGFNEEIQSFTQCYDNTQVDASLLQLAQIGFIGFDDPKMLSTVARIEQELLDAHGFLHRYHTDGSDGLAGDEYPFLICSFWLVEQYASSNRLDEAKEKMNRILAVQSPLGLLAEEYSTHHGRLAGNYPQAFSHIGLISAARAINFEEARNR”, the “soluble on expression in E. coli” value was “not soluble”.

For the sequence “HQQQRSVMTEEYKVPDGMVGFIIGRGGEQISRIQQESGCKIQIAPDSGGLPERSCMLTGTPESVQSAKRLLDQIVEKGR”, the “soluble on expression in E. coli” value is “soluble”.

“HVKLEQLGIPRQVLKYDDFLKSTQKSPATAPKPMPPRPPLPNQQFGVSLQHLQEKNPEQEPIPIVLRETVAYLQAHALTTEGIFRRSANTQVVREVQQKYNMGLPVDFDQYNELHLPAVILKTFLRELPEPLLTFDLYPHVVGFLNIDESQRVPATLQVLQTLPEENYQVLRFLTAFLVQISAHSDQNKMTNTNLAVVFGPNLLWAKDAAITLKAINPINTFTKFLLDHQGELFPSPDPSGL”: the “soluble on expression in E. coli” value is on record as “soluble”.

Regarding “IDFRTNKSKDAVIVVELASPAAIVDVKRVQEGLSIDLMNTSVKDEQLYLLDVKDFATVVESVEVFRDTSTTRLVAYIDEEYTHDYRLTGRYLEITVSKLKPNEKV”, the “soluble on expression in E. coli” value is “not soluble”.

For the sequence “IDGDSITNKQIKKFWRQKQIIEEDHLYSAIKAAARVRARNLSDEDYKRFEESLDMEDLETEDHQGLKDWWTKSKYAYLNQPALGSADSLKRKRFSTYTPNCFSFKPCNPLYATSLNVF”, the “soluble on expression in E. coli” value is recorded as “not soluble”.

“IDKAIRDGNVLGFRTEYYKTLSEKDDIDDETSSTGIDKKEALENPIRISEIVDFILKNYNRLTKRNEEFFEHNKIANINEVITSRNKLSENKVLTTLNGFNSILACSSINAAKIYYSEFKKQQQKFPQEEKLKIGLIYSYLPSEQ”: the “soluble on expression in E. coli” value is reported as “not soluble”.

Regarding “IFNVPFGLNINLLPQYHMYTTQEAKDKIYYYSGNKVGFDIGASAQIGYMWQVTDNFGISLLGELGYSFDSFNANFDTAKVENPNDITGQIDAPEGTQKLGSASFYTHNLKIGILPKFNIKAFSIGIGLGIIVPMAITQNWKDEAAKTLFKDASTKFMSSVGFYGKLTFDYSIFFTEKIAMNIGLYTGVDAIGSINTTINNTSLNQGAHSEAPLLSYDIGLQLGFRFGPKAFN”, the “soluble on expression in E. coli” value is “not soluble”.
